Test results reported in the supplement of paper PMC12042874.
± gives the uncertainty stated by the source.

Experiment: amyloid nucleation score (Sup35N fusion, yeast selection) (log enrichment); library NNK3; higher = more nucleation; inactive = no reads after selection
Procedure, shortened: (§1)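 Peptides of 20 random codons fused to Sup35N were expressed in psi-negative yeast, induced 24 hours with 100 μM copper sulfate, then grown 7 days at 30°C on medium lacking adenine and uracil. Input and output plasmid inserts were Illumina-sequenced. Nucleation score is the DiMSum log enrichment of output over input reads, centred on the mode score of non-aggregating sequences, excluding sequences with under 100 input reads. Random libraries had three technical output replicates.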

| Substance | amyloid nucleation score |
| --- | --- |
| LTLLR | inactive |

Experiment: amyloid nucleation score (Sup35N fusion, yeast selection) (log enrichment); library NNK1; higher = more nucleation; inactive = no reads after selection
Procedure, shortened: as §1

| Substance | amyloid nucleation score |
| --- | --- |
| AAFTSSNYMFGFYFGLWVSN | 1.55 ± 0.45 |
| AANGCASSV | -0.856 ± 0.44 |
| AASKIIENIGHLC | -0.337 ± 0.52 |
| ACANLKSGIFKRFFTSCSGT | -0.959 ± 0.65 |
| ACDVVIRTWITKDTKGFYRA | 0.488 ± 0.29 |
| ACEELVQIVVYCDSFMFSPS | 1.46 ± 0.52 |
| ACEKLQVNW | 0.329 ± 0.35 |
| ACHCNIFFHR | 6.325 ± 0.058 |
| ACKCAFSGFSYVAFGPVMGG | -1.61 ± 1.9 |
| ACLCVIRMFHYNGLRH | 0.576 ± 0.76 |
| ACSCDALRSNLAIIKRESRV | -0.766 ± 2.4 |
| ACSPGTVVKDITDTSK | 0.45 ± 0.63 |
| ACWLAKHKEYRLSGHVQEFD | 0.035 ± 0.52 |
| ADCFNLYGRTFDKFKPPHMD | 0.631 ± 0.54 |
| ADNRVQRYTDPFLGSVSMYK | 0.563 ± 0.49 |
| ADPLMI | -0.163 ± 0.28 |
| ADRWVLSFMEPCAT | inactive |
| ADSLSDELFDYKTYIAVKSF | -0.645 ± 0.27 |
| ADTLFPLDHPVINFSPFIVL | 5.789 ± 0.05 |
| ADVQWRHRTGISSSIVRSGA | 0.822 ± 1 |
| AEHLICLGYGQRWGNYTGLP | 0.164 ± 0.62 |

Experiment: amyloid nucleation score (Sup35N fusion, yeast selection) (log enrichment); library NNK2; higher = more nucleation; inactive = no reads after selection
Procedure, shortened: as §1

| Substance | amyloid nucleation score |
| --- | --- |
| LTLLR | -0.122 ± 0.42 |
| YGGKSHPLIWFACIWSYIVN | 3.04 ± 0.07 |
| YGPLNFDTSP | 0.74 ± 0.16 |
| YGQKVMPESMKQSFNFMTEI | -0.573 ± 0.63 |
| YGQSRANDTDDPGWGTVMRL | 0.3 ± 0.74 |
| YGSRVYLRVWKLGCFGQYGE | 1.68 ± 0.27 |
| YGSVR | 0.669 ± 0.37 |
| YGVGMVWMVIECEEVGYVRR | 0.683 ± 0.16 |
| YHCENDEALIRDSGPSKTTK | 0.485 ± 0.41 |
| YHCGFGAS | 0.837 ± 0.44 |
| YHFYMASYKAFKSGGVGTGG | -1.56 ± 1.1 |
| YHGFSQDCLNV | -0.042 ± 0.55 |
| YHGVLSFLII | 1.29 ± 0.36 |
| YHRCMKGVRDFVKLVDDCML | -1.09 ± 0.49 |
| YHWIIIRVA | -0.601 ± 0.79 |
| YHWNVGIDGYLNSTMLLQAY | inactive |
| YHYANDMFFN | -0.727 ± 0.56 |
| YICLAVGDVNGEMNYWVIRG | 6.865 ± 0.043 |
| YIFSILRDKSVPFDSQVSKN | -0.797 ± 1.1 |
| YIFSIS | -1.26 ± 0.62 |
| YIIRRYWARPSYVNSFM | -0.31 ± 0.74 |
| YIIWLI | inactive |
| YILSDIIFMGIWGV | 4.1 ± 0.13 |
| YINSGV | inactive |
| YISIPDVCLLHSIPQSRASI | inactive |

| Substance | amyloid nucleation score |
| --- | --- |
| YIVQWSFMVSRSQ | 1.62 ± 0.086 |
| YKLGTRMSECLRNNVLDSSS | inactive |
| YKNVFHNCILADSSVYWNTH | 5.764 ± 0.044 |
| YLAFSMEHAGCLHHRVSGIM | 5.46 ± 0.084 |
| YLEWIL | -2.06 ± 0.54 |
| YLFVQEKKRVFRYFRWRHPV | -0.032 ± 0.8 |
| YLGICTMFDTGIGEIFTCCT | 5.78 ± 0.069 |
| YLIAELFQIVDACLWLSSWR | -0.328 ± 0.38 |
| YLIKMTCVGIMFSV | 6.592 ± 0.04 |
| YLKFIKANVRTSGKKLA | -0.562 ± 1.1 |
| YLKGNIKATVFTNSPMLV | -0.085 ± 0.79 |
| YLLGRMKWLNTVRWERRDEF | 3.51 ± 0.083 |
| YLLTLFGPRMTD | -1.45 ± 0.76 |
| YLLWSTVSAAFSDCRGLKYG | inactive |
| YLLYSNRQISYTFYCDDTVC | inactive |
| YLPVLEVVPTNGVPHDRFWS | 1.08 ± 0.29 |
| YLQLRMLTVMGCLRLCTSMP | 0.386 ± 0.34 |
| YLSIFRVLSIFCVWLHTVGN | inactive |
| YLSKTLIAVMDFCVLDTG | -0.971 ± 0.48 |
| YLYGGVYKIKIMILPFDRAL | 7.621 ± 0.044 |
| YLYLRKASEFLKGRWWVKYK | inactive |
| YLYPSCCIRYILILNFYTVI | 0.013 ± 0.16 |
| YLYSAQNIRGRWLFCSMKCD | -1.03 ± 0.62 |
| YLYSNG | inactive |
| YMNQERVQTVFDSRICFRLH | -0.246 ± 0.35 |

| Substance | amyloid nucleation score |
| --- | --- |
| YMRDFYRVRNYRRCCVVCPS | -1.59 ± 1.1 |
| YMSFPLDVLVICLCRIVIES | 0.089 ± 1.1 |
| YMTEIANKRSPRACWIGERM | -0.156 ± 0.79 |
| YNCGSLILNRISSGL | -2.21 ± 0.76 |
| YNNAGGQVDLNLCYGLDVFL | inactive |
| YNQSMYFRVLGFYTYPSDRG | 2.32 ± 0.07 |
| YNRNRCEVWRLFCLFCLLCF | 2 ± 0.089 |
| YNSCFYQKWVMCGHSCYHQV | 4.77 ± 0.11 |
| YNSTLKFLSKLKLVNIIGTV | -1.26 ± 1.1 |
| YPDDLVMPLDDQRCKARLGH | 0.665 ± 0.57 |
| YPEADALLRFGVMDIHN | 0.085 ± 0.36 |
| YPFLIS | -0.922 ± 1 |
| YPVLN | -0.834 ± 0.49 |
| YQDSKRE | -0.833 ± 1.1 |
| YQIFNKLVAHFKYNYTQTDR | -0.902 ± 0.56 |
| YQNIVIRLLVLCYNVTDGLV | 3.02 ± 0.14 |
| YQRMPSIYGEVVCHQSCQGV | -0.069 ± 0.45 |
| YQRRRSGGLELDWSNTMQGC | -0.015 ± 0.31 |
| YRCVWYGFPSRSWAGSSDIL | 0.309 ± 0.8 |
| YRDECWLSYS | -0.347 ± 0.56 |
| YRKAGSSQTGNFLLLLLDGG | 0.067 ± 0.63 |
| YRLMLMS | 0.43 ± 0.42 |
| YRMAAVIYIYIIRFSGSCMW | -2.08 ± 0.62 |
| YRNRVSLRKYRDARYQLCCT | 0.247 ± 0.25 |
| YRVAMYMDSVFIMYAYDIPN | 2.1 ± 0.14 |

| Substance | amyloid nucleation score |
| --- | --- |
| YRVCAYLAAKEFDSRHGGDA | 0.744 ± 0.37 |
| YRVWWSVIYVKWVG | -0.618 ± 1.1 |
| YRWDHILDVGSSFVL | 3.61 ± 0.064 |
| YRWVRVSNRGCRTNMIKYMS | -1.66 ± 0.36 |
| YSCMVFSLGRVMELSGHMFG | inactive |
| YSFGVQC | 0.067 ± 0.25 |
| YSFNLCNS | -0.013 ± 0.45 |
| YSFYAGFVNYIKVWNNRG | 4.23 ± 0.05 |
| YSGRREILYHNRVSPHCMNL | 2.64 ± 0.12 |
| YSHAGEASWDYVSLWFSSRK | 0.49 ± 0.46 |
| YSIYELPTHYLKCLRSYKSK | -0.627 ± 1.1 |
| YSMSLASSRCR | inactive |
| YSNRVTLMSYDIN | inactive |
| YSNSGVTWLRMHNVMFCGEG | -0.122 ± 0.32 |
| YSNYTHRNSTLGFKQISRTS | 0.063 ± 0.79 |
| YSPLLTLWKIGRIWIAFMIA | 0.148 ± 1 |
| YSPSVVVDCRSGRDRNLRGY | -0.254 ± 0.55 |
| YSRVQSRPMCKLRKALHWRV | 1.31 ± 0.25 |
| YSSADGPDSDMCRSVLKLVI | 0.287 ± 0.25 |
| YSSFIDNHFAVRR | -0.448 ± 0.49 |
| YSSNMASALSYICDPMIFNF | -0.703 ± 0.56 |
| YSSSSSTYNAWFSMPESHEL | 0.264 ± 0.15 |
| YSSSVMPRRSDRVRT | 0.139 ± 0.63 |
| YSSVSR | -1.05 ± 0.55 |
| YSTFSGH | 0.806 ± 0.27 |

| Substance | amyloid nucleation score |
| --- | --- |
| YSTRRLGHLMC | -0.381 ± 0.79 |
| YSVSSMVKPMIICCNSVNC | 8.344 ± 0.051 |
| YSVTLGGWIREQSLQLSTSS | 0.768 ± 0.46 |
| YSYKFAAVSMIWVYPCEHTS | 1.71 ± 0.18 |
| YSYVGFIF | 1.49 ± 0.32 |
| YSYVVNLLTYTRSECKMLV | 5.738 ± 0.035 |
| YTDISCVLLGLG | -1.76 ± 0.78 |
| YTDLG | 0.563 ± 0.44 |
| YTEGAWVRVSDYRE | -0.565 ± 0.29 |
| YTFKYLSRMYLHYSVKGMWL | 0.325 ± 0.8 |
| YTLNPGFHHRFCVWTA | inactive |
| YTMMRFGPPPFETFVVKYGL | 1.42 ± 0.35 |
| YTNVVYNYLRSCCGAWYGQR | 9.015 ± 0.068 |
| YTQAYILVLIVLLLLSVMVI | 5.638 ± 0.054 |
| YTTRSVMVSCGYCR | -0.29 ± 0.27 |
| YTTYGHTSHLTLYPYTPRMM | 0.123 ± 0.74 |
| YTVGRGSR | 0.794 ± 0.6 |
| YVENTGASCFGAYK | 2.25 ± 0.11 |
| YVITSSPSLYACICSGVSVR | 4.87 ± 0.1 |
| YVIVTDFYYNMVRVVFVRMA | 0.228 ± 1 |
| YVKLCSRRDGT | -0.352 ± 0.18 |
| YVRMMTNSTLLGRGLKYLCV | 0.429 ± 0.62 |
| YVSWRTNGLMSTCDFLTRQT | 0.719 ± 0.23 |
| YVVVLNWNSHCSKYYELRQE | 8.402 ± 0.05 |
| YVYMSYPYIILLFHYMSSDW | inactive |

| Substance | amyloid nucleation score |
| --- | --- |
| YVYSVYNFLRVLICAGTG | 6.185 ± 0.037 |
| YVYVDYWICTIWCVLCNLCS | 0.256 ± 1 |
| YWANMVG | -0.328 ± 0.48 |
| YWFFCGRWK | 4.7 ± 0.11 |
| YWPLVIFLAWPMKYFVLEVM | -0.417 ± 0.43 |
| YWSCTMRVFRVTLNCSNS | 3.44 ± 0.066 |
| YWSETCLSMGENEHFNSWKI | inactive |
| YWVFMNSRLVAIGPANALVV | -0.69 ± 1.1 |
| YWVLQNYHLYCLYKSKSRNW | -0.403 ± 0.4 |
| YYAGADFEGNSCGDSIPACR | -0.208 ± 1.1 |
| YYFMVL | 0.656 ± 0.35 |
| YYLICST | 0.023 ± 0.47 |
| YYLVYKAGKMLIEYHKSYNW | -1.1 ± 1 |
| YYLYWHFKIYWRQHLVNAFN | -1 ± 1.1 |
| YYMVSP | -0.093 ± 0.33 |
| YYNIQLSFVDMVLMYYDESM | 4.443 ± 0.04 |
| YYRYPYTLKCPGGLQERQHL | -0.028 ± 0.76 |
| YYSCPASLLFNTGLPVKYSW | -1.26 ± 0.36 |
| YYSLLLGSTKSVAN | -0.038 ± 0.33 |
| YYTFFNKRYNRWCMMNLNLT | inactive |
| YYTPRWCFAYVSRLVWFLLP | inactive |
